Patent publication US20240294622A1 (SUZHOU TRANSCENTA THERAPEUTICS, published 2024)
Where a chain is given by its changes, count along the chain named.

T1: HGREM1-His (ACRO) (human, UniProt O60565 25-184)
T1 construct: Lys25-Asp184 of NP_037504 with C-terminal polyhistidine tag (ACRO GR1-H52H3); they are put here; also called hGREM1 (ACRO); human gremlin (ACRO)
T1 sequence: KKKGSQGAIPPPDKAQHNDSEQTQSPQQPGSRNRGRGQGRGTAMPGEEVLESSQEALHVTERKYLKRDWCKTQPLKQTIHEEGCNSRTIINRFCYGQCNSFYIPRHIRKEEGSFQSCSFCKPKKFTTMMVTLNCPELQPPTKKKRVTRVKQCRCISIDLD

T2: DAN-his (Sinobiological) (human, UniProt P41271 17-181, limits assumed)
T2 construct: also called DAN (Sinobiological); human DAN-his
T2 sequence (looked up): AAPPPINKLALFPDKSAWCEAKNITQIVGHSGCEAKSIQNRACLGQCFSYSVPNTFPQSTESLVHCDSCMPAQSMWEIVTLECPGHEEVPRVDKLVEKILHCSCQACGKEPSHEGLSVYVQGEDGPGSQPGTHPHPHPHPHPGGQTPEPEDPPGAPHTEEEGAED

T3: Mouse Gremlin-His (R&D) (mouse, UniProt O70326 25-184)
T3 construct: Lys25-Asp184 with 10xHis, R&D 956-GR; also called mouse gremlin (R&D); mGREM1
T3 sequence: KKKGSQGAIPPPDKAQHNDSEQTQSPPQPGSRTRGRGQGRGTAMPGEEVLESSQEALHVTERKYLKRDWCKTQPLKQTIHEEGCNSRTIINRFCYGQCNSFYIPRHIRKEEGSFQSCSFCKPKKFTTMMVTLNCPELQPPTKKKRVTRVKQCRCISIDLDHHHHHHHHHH

B1: chimeric antibody 42B9 (antibody, human IgG1, V domains shown)
VH: QVQLQQSGAELARPGASVKLSCKASGYTFTSYGIGWVKQRTGQGLEWIGEIYPRSGNTYNNEKFKGKATLTADKSSRTVYMELRSLISEDSAVYFCAREGYSNNYYAMDYWGQGTSVTVFS
VL: DVLMTQTPLSLPVSLGDQASISCISSQSLVHSNGNTYLEWYLQKPGLSPKLLIYKVSNRFSGVPDRLSGSGSGTDFTLRISRVEAEDLGVYYCFQGSHVPFTFGSGTKLEIK
B2: chimeric antibody 67G11 (antibody, human IgG1, V domains shown)
VH: B1 VH
VL: B1 VL with I24R, L47Q, R79K
B3: Hu14E3_HbLa (antibody, IgG1, V domains shown)
VH: QIQLVQSGSELKKPGASVKVSCKASGYTFTTYGMAWMRQAPGQGLEWMGWINTLSGEPTYADDFKGRFAFSLDTSVSTAYLQISSLKAEDTAVYYCAREPMDYWGQGTMVTVSS
VL: DVVMTQSPLSLPVTLGQPASISCKSSQSLLDSDGKTYLSWLQQRPGQSPRRLIYLVSKLDSGVPDRFSGSGSGTDFTLKISRVEAEDVGVYYCWQGAHFPLTFGQGTKLEIK
notes: humanized
B4: Hu22F1_HcLa (antibody, V domains shown)
VH: QAQLVQSGAEVKKPGASVKVSCKASGYSFTDYYMNWVRQAPGQGLEWMGDINPKDGDSGYSHKFKGRVTLTVDKSTSTVYMELRSLRSEDTAVYYCASGFTTVVARGDYWGQGTTVTVSS
VL: B3 VL with S39N, A97T, L101Y, Q105G, L109V
B5: Hu14E3_HcLb (antibody, IgG1, V domains shown)
VH: B3 VH with Y27S, R38K, E46T
VL: B3 VL with Y54S
notes: humanized
B6: Hu22F1_HdLb (antibody, V domains shown)
VH: B4 VH with V37L, M48I, V68A
VL: B3 VL with S39N, V63F, A97T, L101Y, Q105G, L109V
B7: Hu22F1_HcLb (antibody, V domains shown)
VH: B4 VH
VL: B3 VL with S39N, V63F, A97T, L101Y, Q105G, L109V
B8: Hu14E3_HbLb (antibody, IgG1, V domains shown)
VH: B3 VH
VL: B3 VL with Y54S
notes: humanized
B9: Hu22F1_HdLa (antibody, V domains shown)
VH: B4 VH with V37L, M48I, V68A
VL: B3 VL with S39N, A97T, L101Y, Q105G, L109V
B10: Hu14E3_HcLa (antibody, IgG1, V domains shown)
VH: B3 VH with Y27S, R38K, E46T
VL: B3 VL
notes: humanized
B11: Hu22F1_HbLb (antibody, V domains shown)
VH: B4 VH with A2V, L70M, R84S
VL: B3 VL with S39N, V63F, A97T, L101Y, Q105G, L109V
B12: Hu22F1_HbLa (antibody, V domains shown)
VH: B4 VH with A2V, L70M, R84S
VL: B3 VL with S39N, A97T, L101Y, Q105G, L109V
B13: Hu14E3_HaLb (antibody, IgG1, V domains shown)
VH: B3 VH with I2V, A69V
VL: B3 VL with Y54S
notes: humanized
B14: Hu22F1_HaLa (antibody, V domains shown)
VH: B4 VH with A2V, L70M, V72R, K74T, R84S
VL: B3 VL with S39N, A97T, L101Y, Q105G, L109V
notes: humanized 22F1 variant
B15: Hu22F1_HaLb (antibody, V domains shown)
VH: B4 VH with A2V, L70M, V72R, K74T, R84S
VL: B3 VL with S39N, V63F, A97T, L101Y, Q105G, L109V
B16: 56C11 (antibody, V domains shown)
VH: EVQLQQSGPELVKPGASVKISCKASGYTFTDFYMNWVKQSHGKSLEWIGDINPNNGGTSYNQKFKGKATLTVDKSSSTAYMELRSLTSEDSAVYYCARDPIYYDYDEVAYWGQGTLVTVSA
VL: DVVMTQTPLSLPVSLGDQASISCRSSQSLVHSNGNTYLHWYLQKPGQSPKLLIYKVSNRFSGVPDRFSGSGSGTDFTLKISRVEAEDLGVYFCSQSTHVPLTFGAGTKLELK
notes: mouse hybridoma antibody; also called hybridoma 56C11

The binders below were run against T1, HGREM1-His (ACRO) (assay: ELISA on coated human Gremlin-his; unit from the axis Ab(nM); panel called FIG. 19C in the text).
Method: (§1) Clear polystyrene plates (BEAVER) were coated with 100 μl/well of a 0.5 μg/ml human gremlin (ACRO) and DAN (Sinobiological) in high pH coating buffer overnight at 4° C. Then the plates were washed once on an automatic plate washer using PBS+0.1% Tween 20 (Sigma). 100 μl of block solution consisting of PBS+1% BSA+1% normal goat serum+0.5% Tween 20 (Sigma) was added to each well and incubated at room temperature for 2 hours. Then 100 ul of antibodies (hybridoma or chimeric antibody 36F5, chimeric antibody 67G11, chimeric antibody 42B9) in antibody dilution buffer containing PBS+1% BSA+1% normal goat serum+0.01% Tween 20 starting from 2 μg/ml (13.33 nM) and then 4 fold serial dilution were added to each well of the plate and incubated for 1 hours at room temperature. Afterward the plates were washed three times with 200 ul of PBS+0.1% Tween20 followed by adding 100 μl/well 1:10000 Goat anti mouse IgG-HRP or mouse anti-human IgG-HRP (abcam), and incubate for 1 hour at room temperature. They were then washed 3× with PBS+0.1% Tween20. Finally, 100 μl/well of TMB (InnoReagents) was added to each well and after 2 minutes add 50 ul of stop solution to each well. The plates were read on a Multiscan FC microplate reader (Thermo Scientific) at 450 nm.

Binder | EC50
B1 | 0.0209 nM
B2 | 0.019 nM

What follows are binders tested against T2, DAN-his (Sinobiological) (assay: ELISA on coated DAN-his; unit from the axis Ab(nM); panel called FIG. 19C in the text).
Method: as §1

Binder | EC50
B1 | 0.0203 nM
B2 | 0.0178 nM

These binders were tested against T1, HGREM1-His (ACRO) (assay: ELISA, binding to hGremlin-his).

Binder | EC50
B3 | 0.006 µg/mL
B4 | 0.312 µg/mL
B5 | 0.0061 µg/mL
B6 | 0.0103 µg/mL
B7 | 0.0435 µg/mL
B8 | 0.0062 µg/mL
B9 | 0.0167 µg/mL
B10 | 0.0066 µg/mL
B11 | 0.094 µg/mL
B12 | 1.04 µg/mL
B13 | 0.0056 µg/mL
B14 | 1.17 µg/mL
B15 | 0.117 µg/mL

These binders were tested against T1, HGREM1-His (ACRO) (assay: ELISA, coated hGREM1 (ACRO)).
Method: (§2) Clear polystyrene plates (BEAVER) were coated with 100 μl/well of a […] hGREM1 (ACRO) and mouse gremlin (R&D) in high pH coating buffer overnight at 4° C. Then the plates were washed once on an automatic plate washer using PBS+0.1% Tween 20 (Sigma). 100 μl of block solution consisting of PBS+1% BSA+1% normal goat serum+0.5% Tween 20 (Sigma) was added to each well and incubated at room temperature for 2 hours. Then 100 μl of antibodies in antibody dilution buffer containing PBS+1% BSA+1% normal goat serum+0.01% Tween 20 starting from 2 μg/ml and then serial dilutions were added to each well of the plate and incubated for 1 hours at room temperature. Afterward the plates were washed three times with 200 μl of PBS+0.1% Tween20 followed by adding 100 μl/well 1:10000 Goat anti mouse IgG-HRP (abcam), and incubate for 1 hour at room temperature. They were then washed 3× with PBS+0.1% Tween20. Finally, 100 µl/well of TMB (Pierce) was added to each well and after several minutes add 50 μl of stop solution to each well. The plates were read on a Multiscan FC microplate reader (Thermo Scientific) at […].

Binder | EC50
B16 | 0.0134 µg/mL

Each binder was assayed against T3, Mouse Gremlin-His (R&D) (assay: ELISA, coated mouse gremlin (R&D)).
Method: as §2

Binder | EC50
B16 | 0.0172 µg/mL
